Reference: the nanobody polyreactivity screen of Harvey et al. (2022)

Assay: yeast display, Sf9 membrane polyspecificity reagent, FACS + sequencing; frameworks hold sequencing errors
Summary of the method: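 Galactose-induced (36–48 hours) yeast carrying a synthetic nanobody display library were exposed to 10% biotinylated, detergent-solubilized Sf9 membrane reagent at 4 °C for 1 hour. FACS followed streptavidin microbead enrichment, using low and high (top ~1%) gates for expression (anti-HA) and reagent binding (streptavidin). Colony PCR, MiSeq 2 × 250 sequencing and CDR-length filtering followed. Labels for polyreactivity reflect the gate of origin.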

Row | Sequence | polyreactivity (PSR sort gate)
1 | QVQLVESGGGLVQAGGSLRLSCAASGRISGYNMGWSRHAPGKERELVAAISNGGSTNYADSVKGRFTISRANAKNTVYLQMNSLKPEDTAVYYCAKLGPRSYSAYRYDYWGQGTQVTVSS | high polyreactivity
2 | QVQLVESGGGLVQAGGSLRLSCAASGRISLSNAMGWYRQAPGKEREFVAAITKRSDRTYYADSVKGRFTISRDNAKNTVYLQMNSLKPEDTAVYYCAAKPLFGTRDDYWGQGTHVTVSS | low polyreactivity
3 | QVQLVESGGGLVQAGGSLRLSCAASGRISNDYAMGWYRQAPGKERELVATITFSGGDTYYADSVKGRFTISRDNAKNTVYLQMNSLKPEDTAVYYCAASKWRSFSGGWWRLLFDYWGQGTQVTVSS | low polyreactivity
4 | QVQLVESGGGLVQAGGSLRLSCAASGRISNDYAMGWYRQAPGKVRELVATITFSGGDTYYADSVKGRFTISRDNAKNTVYLQMNSLKPEDTSVYYCAASKWRSYSGGWWRLLFDYWGQGTQVTVSS | low polyreactivity
5 | QVQLVESGGGLVQAGGSLRLSCAASGRISQIYAMGWYRQAPGKERELVARITSTDSTYYADSVKGRFTISRDNAKNTVYLQMNSLKPEDTAVYYCAASWWSPYDYWGQGTQVTVSS | low polyreactivity
6 | QVQLVESGGGLVQAGGSLRLSCAASGRISQIYAMGWYRQAPGKERELVASISSSGSRTYYADSVKGRFTISRDNAKNTVYLQMNSLKPEDTAVYYCAARWWARSRGPYDYWGQGTQVTVSS | high polyreactivity
7 | QVQLVESGGGLVQAGGSLRLSCAASGRISQIYAMGWYRQAPGTERELVASISSSGSRTYYADSVKGRFTISRDNAKNTVYLQMNSLKPEDTAVYYCAARWWARSNRYDYWGQGTQVTVSS | high polyreactivity
8 | QVQLVESGGGLVQAGGSLRLSCAASGRISRRYAMGWYRQAPGKERELVAAITSGGRTYYADSVKGRFTISRDNAKNTVYLQMNSLKPEDTAVYYCAAAGYLPSTYWGQGTQVTVSS | high polyreactivity
9 | QVQLVESGGGLVQAGGSLRLSCAASGRISSYYAMGWYRQAPGKDREFVARIRWSGGSTYYADSVKGRFTISRDNAKNTVYLQMNSLKPEDTAVYYCAAVPYAYGYTYDYWGQGTQVTVSS | high polyreactivity
10 | QVQLVESGGGLVQAGGSLRLSCAASGRISTFYAMGWYRQAPGKERELVAGIRWRGGSTYYADSVKGRFTISRDNAKNTVYLQMNSLKAEDTAVYYCYSMDYWGQGTQVTVSS | high polyreactivity
11 | QVQLVESGGGLVQAGGSLRLSCAASGRISVFNAMGWYREAPGKERELVAAITSGGSTNYADSVKGRFTISRDNAKNTVYLQMNSLKPEDTAVYYCNADVYHSHEPHYDYWGQGTQVTVSS | low polyreactivity
12 | QVQLVESGGGLVQAGGSLRLSCAASGRISVVNARGWYRQAPGKERELVAAIRRASTNYADSVKGRFTISRDIAKNTVYLQMNILKPEDTAVYYCAARVYGINIFEYWGQGTQVTVSS | high polyreactivity
13 | QVQLVESGGGLVQAGGSLRLSCAASGRISWGYAMGWYRQAPGKERELVAVINFNGGRTYYADSVKGRFTISRDNAKNTVYLQMNSLKPEDTAVYYCAADSGYEYDYWGQGTQVTVSS | low polyreactivity
14 | QVQLVESGGGLVQAGGSLRLSCAASGRISYAYAMGRYRQAPGKERELVAAISGSGGSTYYADSVKWRFTISRDNAKNTVYFQMNTLKPEDTAVYYCAAGSGEYYGGKRYYWGQGTQVTVSS | low polyreactivity
15 | QVQLVESGGGLVQAGGSLRLSCAASGRIVLGYAMGWYRQQPGKEMELVAAISRSGGGTFYADSVKGRFTISRDNAKNTVYLQMNSLKPEDTAVYYCNARRGRASGMDYWGQGTQVTVSS | high polyreactivity
16 | QVQLVESGGGLVQAGGSLRLSCAASGRIVNRYAMGWDRQAPVKERELVAAITYNGGSTYYADSVKGRFTISRDNAKNTVYLQMNSLKPVDTAVYYCNAVEVLDEGWGFWYYYWGQGTQVTVSS | high polyreactivity
17 | QVQLVESGGGLVQAGGSLRLSCAASGRIVRNAMGWYRQSPGKERELVAAISRSGGSTYYADSVKGRFTISRDNAKNTVYLQMNSLKPEDTAVYYCAKRSTSQSLQGEYWGQGTQVTVSS | high polyreactivity
18 | QVQLVESGGGLVQAGGSLRLSCAASGRIVVGYAMGWYRQAPGKERELVAAINRSGSSTYYADSVKGRFTISRDNAKNTVYLQMNSLKPEDTAVYYCNARSGNRYGPRYDYWGQGTQVTVSS | high polyreactivity
19 | QVQLVESGGGLVQAGGSLRLSCAASGRIWWNAMGWYRPAPGNETELVAAIRWSGGITRYADSVKGRFTISRDNAKNTVDLQMHSLKPEDTAVYYCAARLGGSIRSKFDYWGQGTQVTVSS | high polyreactivity
20 | QVQLVESGGGLVQAGGSLRLSCAASGRIYDYNTMGWYRKAPGKERELVAAITGGTGSTYYADSVKGRFTISRDNAKNTVYLQMNSLKPEDTAVYYCAAGFHKRVTPEILYDYWGQGTQVTVSS | low polyreactivity
21 | QVQLVESGGGLVQAGGSLRLSCAASGRIYDYYAMGWYRQAPGKERELVAAISTSGGSTYYADSVKGRFTISRDHAKNTVYLQMKSLKPEDTAVYYCAKDITVTYPGLDYDYWGQVTQVTVSS | low polyreactivity

Row | Sequence | polyreactivity (PSR sort gate)
22 | QVQLVESGGGLVQAGGSLRLSCAASGRIYGANTMGWYRQAPGKERELVAAISWRGTSTYADSVKGRFSISRDNAKNTVYLQMNSLKPEDTAVYYCAARRRGWPQFDYWGQGTQVTVSS | high polyreactivity
23 | QVQLVESGGGLVQAGGSLRLSCAASGRIYGDYAMGWYRQAPGKERELVARITWSGTGTYYADSVKGRFTISRDNAKNTVYLQMNSLKPEDTAVYYCNADWQVKWYYYWGQVTQVTVSS | low polyreactivity
24 | QVQLVESGGGLVQAGGSLRLSCAASGRIYGNAMGWYRQAPGKERELDAAISFSVSSTNYADSVKGRFTISRDNAKNTVYLQMNSLKPEDTAVYYCAADWIGPTYPEMYYWGQGTQVTVSS | low polyreactivity
25 | QVQLVESGGGLVQAGGSLRLSCAASGRIYGTNAMGWYRQAPGKEMELVAAINGSDSSTYYADSVKGRFTISRDNAKNTVYLQINSLKPEDTAVYYCNADWSGAPERSTDGYDYWGQGTQVTVSS | low polyreactivity
26 | QVQLVESGGGLVQAGGSLRLSCAASGRIYGYYGMGWYRQAPGKERELVAAITYRGGSTYYADSVKGRFTISRDNAKNTVYLQMNSLKPEDTAVYYCAADGYSHYRYLYDYWGQGTQVTVSS | low polyreactivity
27 | QVQLVESGGGLVQAGGSLRLSCAASGRIYNSYAMGWYRQAPGKERELVASTNYADSVKGRFTISRDNAKNTVYLQMNSLKPEDSAVYYCARVDVGWQGGEVLFGRFGYWGQGTQVTVSS | low polyreactivity
28 | QVQLVESGGGLVQAGGSLRLSCAASGRIYPKYGMGWYRQAPGKERELVAAITSGTSTYYADSVKGRFTISRDNAKNTVYLQMNSLKPEDTAVYYCAARPTDGSGWPYRWTSDYWGQATQVTVSS | low polyreactivity
29 | QVQLVESGGGLVQAGGSLRLSCAASGRIYRYYAMGWYRQPPAKERELVAAIRRGGSTSYADSVKGRFTISRDNAKNTVYLQMNSLKPEDTAVYYCAATQYYRGYDYWGQGTQVTVSS | high polyreactivity
30 | QVQLVESGGGLVQAGGSLRLSCAASGRIYSFYAMGWYRQAPGKERELVAAITYTDGSTYADSVKGRFTISRDNAKNTVYLQLNSLKPEDTSVYYFATRYRWTPYDFWGQGTQVTVSS | low polyreactivity
31 | QVQLVESGGGLVQAGGSLRLSCAASGRIYSSYAMGRYRQAPGKERELVAAISYSGDRTYYADSVKGRFTISRDNAKNTVYLQMNSLKPEDTAVYYCAARRVTRTTVYRYQYYYWGQGTQVTVSS | high polyreactivity
32 | QVQLVESGGGLVQAGGSLRLSCAASGRIYTRYMGWYRQAPGKEREMVATINWSGGSTYYADSVKGRFTISRDNAKNTVYLQMNSLKPEDTAVYYCNARNVDFYYVQYNGAKIFDYWGQGTQVTVSS | low polyreactivity
33 | QVQLVESGGGLVQAGGSLRLSCAASGRIYTYYTMGWYRQAPGKERELVAAITVRGGRTYYADSVKGRFTISRDNAKNTDYLQMNSLKPEDTAVYYCAARGLVRSYDYWGQVTQVTVSS | high polyreactivity
34 | QVQLVESGGGLVQAGGSLRLSCAASGRLFNYNAMGWYRQAPGKERELVASITVSRGSTYYADSVKGRFTISRDNATNTVYLQMYSLKPEDTAVYNCAADYGSKLDYGYWGQGTQVTVSS | low polyreactivity
35 | QVQLVESGGGLVQAGGSLRLSCAASGRLFSYYAMGWYRPAPGKERELVAGISYRGGSTYYADSVKGRFTISRDNAKNTVYLQMNSLKPEDTAVYYCAARPYSYGQRSLRGYWGQGTQVTVSS | high polyreactivity
36 | QVQLVESGGGLVQAGGSLRLSCAASGRLFYRNAMGWYRQAPGKERELVAAISSSAGSTYYADSVKGRFTISRDNAKNTVYLQMNSLKPEDTAVYYCAASLYSWGQGTQVTVSS | high polyreactivity
37 | QVQLVESGGGLVQAGGSLRLSCAASGRMFGPYTMGWYRQAPGKEREFVAAITRRGGSTYYADSVKGRFTFSRDNAKNTVYLQMNSLKPEDTAVYYCAAVGQNRSLGYSWGQGTQVTVSS | low polyreactivity
38 | QVQLVESGGGLVQAGGSLRLSCAASGRMFSAYAMGWYRQAPGKERELVAAITSVGSTKYADSVKGRFTISRDNAKNTVYLQMNSLKPEDTAVYYCAAEYTRSFYIYYRFGYWGQGTQVTVSS | high polyreactivity
39 | QVQLVESGGGLVQAGGSLRLSCAASGRNFGPYAMGWSRQAPGKERELVASITRSGGRTYYADSVKGRYTISRDNAKNTVYLQMNSLKPEDTAVYYCAAGGFSKSYYYWGQGTQVTVSS | high polyreactivity
40 | QVQLVESGGGLVQAGGSLRLSCAASGRNFGPYAMGWYRQAPGKERELVAVISTRGGITNYADSVKGRFTISRDTAKNTVYVQLNSLKPEDTAVYYCAARFSYPYRIAFNYWGQGTQVTVSS | low polyreactivity
41 | QVQLVESGGGLVQAGGSLRLSCAASGRNFGSYAMGWYRQAPGKERELVAAITSGGSTYYADSVKGRFTISRDNAKNTVYLQMNSLKPEDTAVYYCAARQVRTSKLHMGYWGQGTQVTVSS | low polyreactivity
